Experimental data published in article PMC11347734, “Ultrasensitive Quantification of MUC16 Antigen/Amine-Terminated Aptamer Interaction by Surface Plasmon Resonance: Kinetic and Thermodynamic Studies”.

Tests used:
Conditions in all cases: protein: commercial
[1] = molecular target: T1, MUC16 antigen (CA125) (UniProt Q8WXI7 1-14451); experiment: SPR; 315 K (42 C), pH 7.2; SPR, pH 7.2, 25 C (also 37 and 42 C); 1X PBS with 1 mM MgCl2 given as flow buffer for aptamer immobilization; surface blocked with 0.1% BSA
[2] = molecular target: T1, MUC16 antigen (CA125); experiment: SPR; 25 C, pH 7.2; kon 2.55e4 M-1 s-1, koff 1.01e-3 s-1; SPR, pH 7.2, 25 C (also 37 and 42 C); 1X PBS with 1 mM MgCl2 given as flow buffer for aptamer immobilization; surface blocked with 0.1% BSA
[3] = molecular target: T1, MUC16 antigen (CA125); experiment: SPR; 310 K (37 C), pH 7.2; SPR, pH 7.2, 25 C (also 37 and 42 C); 1X PBS with 1 mM MgCl2 given as flow buffer for aptamer immobilization; surface blocked with 0.1% BSA

CTCACTATAGGGAGACAAGAATAAACGCTCAA (ssDNA, 3'-C6 amine) [anti-MUC16 aptamer]
Kd [1]: 1340 nM
Kd [2]: 39 nM
Kd [3]: 101 nM
